{"source": "patent US20220259315A1", "key": {"[1]": {"molecular_target": "human PD-1 (cell surface) (human) (UniProt Q15116)", "sequence (Q15116 25-288 limits assumed)": "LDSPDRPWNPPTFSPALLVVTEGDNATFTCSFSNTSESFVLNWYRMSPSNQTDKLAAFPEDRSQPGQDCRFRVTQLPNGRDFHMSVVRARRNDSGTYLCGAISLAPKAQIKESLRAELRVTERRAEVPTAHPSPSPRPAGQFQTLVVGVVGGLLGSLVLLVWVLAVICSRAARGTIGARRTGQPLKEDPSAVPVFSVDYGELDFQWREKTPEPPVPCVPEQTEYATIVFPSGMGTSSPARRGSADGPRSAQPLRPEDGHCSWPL", "assay": "column 'Affinity (nM)'; per the footnote of Table 2, FACS staining of cell surface PD-1 on activated CD4 T cells"}, "[2]": {"molecular_target": "human PD-1 (cell surface) (human) (UniProt Q15116)"}, "[3]": {"molecular_target": "human PD-1 (cell surface) (human) (UniProt Q15116)", "assay": "column 'Affinity (nM)'; per the footnote of Table 2, FACS staining of cell surface PD-1 on activated CD4 T cells (Table 5 prints 0.6 for MK3575)"}}, "data": [{"substance": "BMS-5C4 (antibody)", "values": [{"measurement": "Affinity", "setting": "[1]", "result": 0.6, "unit": "nM"}, {"measurement": "EFRA, column 'Functional effect: % CFSE low CD8 T cells'", "setting": "[2]", "result": 175, "unit": "%"}]}, {"substance": "IgG1 control (antibody)", "values": [{"measurement": "EFRA, column 'Functional effect: % CFSE low CD8 T cells'", "setting": "[2]", "result": 100, "unit": "%"}]}, {"substance": "MK-3475 (pembrolizumab) (antibody)", "values": [{"measurement": "Affinity", "setting": "[3]", "result": 0.5, "unit": "nM"}]}]}
